# Earlier results as cited in paper doi:10.1101/390104.
# Assays:
# Assay in all cases: NMR
# Conditions in all cases: folded inactive HdeA dimer, client-free (inferred from context); cited from earlier work
# [1] = molecular target: Glu46 (UniProt position 67, NKDKPEDAVLD)
# [2] = molecular target: Asp47 (UniProt position 68, KDKPEDAVLDV)
# [3] = molecular target: Asp51 (UniProt position 72, EDAVLDVQGIA)
substance,measurement,setting,value
Acid stress chaperone HdeA (wild type) (Escherichia coli),pKa,[1],4.07
same,pKa,[2],4.14
same,pKa,[3],3.83
